Laboratory results published in paper PMC2763920.
Square brackets hold non-standard residues; d marks the D form. Ends that are not written are not given here. pY = N[C@@H](Cc1ccc(OP(=O)(O)O)cc1)C(=O)O

Tests used:
[1] = biological target: Fyn-SH3-SH2 (GST tag cleaved with thrombin); assay: fluorescence polarisation
[2] = biological target: Fyn-SH3-SH2 (GST tag cleaved with thrombin); assay: NECEEM
[3] = biological target: Fyn-SH3-SH2 (GST tag cleaved with thrombin); assay: high-speed capillary electrophoresis

fluorescein-EEEEPQ[pY]EEIPIYL [Fluor-Fyn peptide (fluorescein-EEEEPQpYEEIPIYL)]
t1/2 of the complex [1]: 53.5 s | t1/2 of the complex [2]: 101 s | t1/2 of the complex [3]: 48.4 s
